The record followed here is article PMC5837041 (Molecular cell, 2017).

One assay has as its target T1, Vms1 (Vms1^1-417) (Saccharomyces cerevisiae, UniProt Q04311).
T1 sequence (Q04311 1-417): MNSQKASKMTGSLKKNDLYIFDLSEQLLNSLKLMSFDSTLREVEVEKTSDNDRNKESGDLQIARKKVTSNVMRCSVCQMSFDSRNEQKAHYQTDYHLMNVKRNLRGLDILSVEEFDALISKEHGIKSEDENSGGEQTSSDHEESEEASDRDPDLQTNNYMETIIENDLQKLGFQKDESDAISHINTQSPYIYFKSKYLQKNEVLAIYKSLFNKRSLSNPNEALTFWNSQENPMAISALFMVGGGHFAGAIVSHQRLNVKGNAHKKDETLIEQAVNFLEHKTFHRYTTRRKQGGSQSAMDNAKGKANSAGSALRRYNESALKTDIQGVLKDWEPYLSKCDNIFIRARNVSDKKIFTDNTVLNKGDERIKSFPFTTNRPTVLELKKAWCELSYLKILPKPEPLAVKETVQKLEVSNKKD
Put plainly: lipid blot on nitrocellulose. The assay is classed as binding. The following applies: TBS pH 7.5, 4 °C, 3% BSA (blot); competitive with LRS for the MTD.

Assay [1] has as its target T2, C-terminal fragment of PreScission-cleaved His10-Vms1(1-182-PP-417)-HA (S. cerevisiae, UniProt Q04311 183-417).
T2 sequence (looked up): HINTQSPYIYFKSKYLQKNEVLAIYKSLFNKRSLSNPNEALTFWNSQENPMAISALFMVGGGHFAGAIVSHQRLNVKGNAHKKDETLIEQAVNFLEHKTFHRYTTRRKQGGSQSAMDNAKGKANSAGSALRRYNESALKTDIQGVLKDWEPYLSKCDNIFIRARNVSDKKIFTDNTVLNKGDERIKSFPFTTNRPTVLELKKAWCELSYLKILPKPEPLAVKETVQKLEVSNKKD
Put plainly: SEC. Background: In gel filtration, larger molecules generally elute earlier.

Assay [2] addresses T3, C-terminal fragment of PreScission-cleaved His10-Vms1(1-182-PP-417, C387A, E25C, S228C)-HA (S. cerevisiae, UniProt Q04311 183-417, S228C | C387A).
T3 sequence (looked up): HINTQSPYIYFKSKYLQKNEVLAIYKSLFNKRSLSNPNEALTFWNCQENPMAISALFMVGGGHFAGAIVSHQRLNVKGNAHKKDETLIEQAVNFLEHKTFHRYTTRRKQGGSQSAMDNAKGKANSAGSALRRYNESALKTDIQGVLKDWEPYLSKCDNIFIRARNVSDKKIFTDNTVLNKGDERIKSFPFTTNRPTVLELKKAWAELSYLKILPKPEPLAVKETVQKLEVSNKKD
Kind of assay: cross-linking.

Assay [3] has as its target T4, C-terminal fragment of PreScission-cleaved His10-Vms1(1-182-PP-417, C387A, K32C, T224C)-HA (S. cerevisiae, UniProt Q04311 183-417, T224C | C387A).
T4 sequence (looked up): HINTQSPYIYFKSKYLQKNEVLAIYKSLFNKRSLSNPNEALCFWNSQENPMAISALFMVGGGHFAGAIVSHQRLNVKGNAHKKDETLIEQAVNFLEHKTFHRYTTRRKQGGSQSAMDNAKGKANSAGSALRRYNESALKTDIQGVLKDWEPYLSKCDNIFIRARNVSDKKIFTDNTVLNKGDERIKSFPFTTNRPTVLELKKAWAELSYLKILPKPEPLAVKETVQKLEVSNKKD
Put plainly: cross-linking.

The target of assay [4] is T5, C-terminal fragment of PreScission-cleaved His10-Vms1(1-182-PP-417, C387A, K32C, N218C)-HA (S. cerevisiae, UniProt Q04311 183-417, N218C | C387A).
T5 sequence (looked up): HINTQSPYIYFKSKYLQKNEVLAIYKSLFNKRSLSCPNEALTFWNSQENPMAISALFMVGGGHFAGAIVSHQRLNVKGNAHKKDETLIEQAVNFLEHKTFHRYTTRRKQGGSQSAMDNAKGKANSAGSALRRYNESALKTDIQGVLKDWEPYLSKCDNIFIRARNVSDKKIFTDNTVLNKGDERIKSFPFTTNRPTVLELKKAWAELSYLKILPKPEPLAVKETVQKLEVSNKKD
Put plainly: cross-linking.

Regarding `CC(C)[C@@H](C)/C=C/[C@@H](C)[C@H]1CC[C@@H]2[C@]1(C)CC[C@H]1[C@]23C=C[C@]2(C[C@@H](O)CC[C@]12C)OO3` [EP, ergosterol peroxide], the “lipid blot on nitrocellulose; liposome floatation assay” value on Vms1 (Vms1^1-417) is “Vms1 displayed comparable binding to nitrocellulose-spotted commercial EP and the purified C28H44O3”.

B1: N-terminal fragment of PreScission-cleaved His10-Vms1(1-182-PP-417)-HA (domain or fragment, S. cerevisiae, UniProt Q04311 1-182, looked up)
chain: MNSQKASKMTGSLKKNDLYIFDLSEQLLNSLKLMSFDSTLREVEVEKTSDNDRNKESGDLQIARKKVTSNVMRCSVCQMSFDSRNEQKAHYQTDYHLMNVKRNLRGLDILSVEEFDALISKEHGIKSEDENSGGEQTSSDHEESEEASDRDPDLQTNNYMETIIENDLQKLGFQKDESDAIS
B1: the binding result in assay [1] is on record as “binds”.

B2: N-terminal fragment of PreScission-cleaved His10-Vms1(1-182-PP-417, C387A, E25C, S228C)-HA (domain or fragment, S. cerevisiae, UniProt Q04311 1-182, looked up)
chain: MNSQKASKMTGSLKKNDLYIFDLSCQLLNSLKLMSFDSTLREVEVEKTSDNDRNKESGDLQIARKKVTSNVMRCSVCQMSFDSRNEQKAHYQTDYHLMNVKRNLRGLDILSVEEFDALISKEHGIKSEDENSGGEQTSSDHEESEEASDRDPDLQTNNYMETIIENDLQKLGFQKDESDAIS
On to B2, for which the binding result in assay [2] is listed as “binds”.

B3: N-terminal fragment of PreScission-cleaved His10-Vms1(1-182-PP-417, C387A, K32C, T224C or N218C)-HA (domain or fragment, S. cerevisiae, UniProt Q04311 1-182, looked up)
chain: MNSQKASKMTGSLKKNDLYIFDLSEQLLNSLCLMSFDSTLREVEVEKTSDNDRNKESGDLQIARKKVTSNVMRCSVCQMSFDSRNEQKAHYQTDYHLMNVKRNLRGLDILSVEEFDALISKEHGIKSEDENSGGEQTSSDHEESEEASDRDPDLQTNNYMETIIENDLQKLGFQKDESDAIS
Turning to B3, the binding result in assay [3] and in assay [4] was “binds” throughout.
